The target of one series is PlexinC1 (Homo sapiens) (UniProt O60486). Kind of series: Scatchard analysis. Particulars: cited from earlier work.
Series [1] concerns the target PlexinC1-SemaPSI (Sema domain plus the first PSI domain) (human) (UniProt O60486). Kind of series: ITC.
Series [2] deals with Sema7A, extracellular segment, glycan-trimmed (for crystallization) (human) (UniProt O75326). Kind of series: crystal structure.
Series [3] has the same target. Kind of series: SEC.
The series “SEC + cross-linking” concerns the molecule itself. Kind of series: SEC + cross-linking.

The text below walks through data of PMC2936782 (Cell, 2010).

For the molecule Sema7A (from UniProt O75326), in the series with PlexinC1 (Homo sapiens), the Kd was 2.1 nM.

For the molecule “Sema7A, entire extracellular segment excluding the GPI anchor (from UniProt O75326 45-648) (ligand)”, in series [1], the Kd worked out at 290 nM and the dH is -2 kcal/mol.

Consider “Sema7A, extracellular segment, glycan-trimmed (for crystallization) (from UniProt O75326 45-648) (ligand)”, for which the stoichiometry N in series [2] and in series [3] was 2 in each case.

B1: PlexinC1-ECD (entire extracellular segment) (receptor, human, UniProt O60486 35-944, looked up)
chain: ADEPVWRSEQAIGAIAASQEDGVFVASGSCLDQLDYSLEHSLSRLYRDQAGNCTEPVSLAPPARPRPGSSFSKLLLPYREGAAGLGGLLLTGWTFDRGACEVRPLGNLSRNSLRNGTEVVSCHPQGSTAGVVYRAGRNNRWYLAVAATYVLPEPETASRCNPAASDHDTAIALKDTEGRSLATQELGRLKLCEGAGSLHFVDAFLWNGSIYFPYYPYNYTSGAATGWPSMARIAQSTEVLFQGQASLDCGHGHPDGRRLLLSSSLVEALDVWAGVFSAAAGEGQERRSPTTTALCLFRMSEIQARAKRVSWDFKTAESHCKEGDQPERVQPIASSTLIHSDLTSVYGTVVMNRTVLFLGTGDGQLLKVILGENLTSNCPEVIYEIKEETPVFYKLVPDPVKNIYIYLTAGKEVRRIRVANCNKHKSCSECLTATDPHCGWCHSLQRCTFQGDCVHSENLENWLDISSGAKKCPKIQIIRSSKEKTTVTMVGSFSPRHSKCMVKNVDSSRELCQNKSQPNRTCTCSIPTRATYKDVSVVNVMFSFGSWNLSDRFNFTNCSSLKECPACVETGCAWCKSARRCIHPFTACDPSDYERNQEQCPVAVEKTSGGGRPKENKGNRTNQALQVFYIKSIEPQKVSTLGKSNVIVTGANFTRASNITMILKGTSTCDKDVIQVSHVLNDTHMKFSLPSSRKEMKDVCIQFDGGNCSSVGSLSYIALPHCSLIFPATTWISGGQNITMMGRNFDVIDNLIISHELKGNINVSEYCVATYCGFLAPSLKSSKVRTNVTVKLRVQDTYLDCGTLQYREDPRFTGYRVESEVDTELEVKIQKENDNFNISKKDIEITLFHGENGQLNCSFENITRNQDLTTILCKIKGIKTASTIANSSKKVRVKLGNLELYVEQESVPST
For the molecule B1, the binding result in the series “SEC + cross-linking” is recorded as “binds”.
